Test results reported in patent publication US20260258146A1 (Regeneron, published 2026).

Experiments:
Assay in all cases: cell-based or functional assay
[1] = molecular target: T1, human CD28 on human primary CD3+ T cells (human, UniProt P10747 19-220)
[2] = molecular target: T1, human CD28 on human primary CD3+ T cells; remark: listed apart in the source
[3] = molecular target: T1, human CD28 on human primary CD3+ T cells; remark: listed apart in the source
[4] = molecular target: T1, human CD28 on human primary CD3+ T cells; remark: listed apart in the source

B1: bsAb7945 (bispecific antibody, human IgG4 S228P, kappa)
heavy 1: QVQLVQSGAEVKKPGSSVKVSCKASGGPFRSSSFSWVRQAPGQGLEWMGGIIPILGKTNYAQKFQGRITIVTDESTTTVYMELSSLRSEDTAVFYCVRGSSLFDYWGQGTLVTVSSASTKGPSVFPLAPCSRSTSESTAALGCLVKDYFPEPVTVSWNSGALTSGVHTFPAVLQSSGLYSLSSVVTVPSSSLGTKTYTCNVDHKPSNTKVDKRVESKYGPPCPPCPAPPVAGPSVFLFPPKPKDTLMISRTPEVTCVVVDVSQEDPEVQFNWYVDGVEVHNAKTKPREEQFNSTYRVVSVLTVLHQDWLNGKEYKCKVSNKGLPSSIEKTISKAKGQPREPQVYTLPPSQEEMTKNQVSLTCLVKGFYPSDIAVEWESNGQPENNYKTTPPVLDSDGSFFLYSRLTVDKSRWQEGNVFSCSVMHEALHNHYTQKSLSLSLGK
heavy 2: QVQLQESGPGLVKPSETLSLTCTVSGGSISSYYWSWIRQPPGKGLEWIGYIYYSGITHYNPSLKSRVTISVDTSKIQFSLKLSSVTAADTAVYYCARWGVRRDYYYYGMDVWGQGTTVTVSSASTKGPSVFPLAPCSRSTSESTAALGCLVKDYFPEPVTVSWNSGALTSGVHTFPAVLQSSGLYSLSSVVTVPSSSLGTKTYTCNVDHKPSNTKVDKRVESKYGPPCPPCPAPPVAGPSVFLFPPKPKDTLMISRTPEVTCVVVDVSQEDPEVQFNWYVDGVEVHNAKTKPREEQFNSTYRVVSVLTVLHQDWLNGKEYKCKVSNKGLPSSIEKTISKAKGQPREPQVYTLPPSQEEMTKNQVSLTCLVKGFYPSDIAVEWESNGQPENNYKTTPPVLDSDGSFFLYSRLTVDKSRWQEGNVFSCSVMHEALHNRFTQKSLSLSPGK
light: not shown
EC50 IL2 release; T cells + HEK293/hCD20/hCD38; bsAb7945 + IgG4^P [1]: 41.4 nM
EC50 IL2 release; T cells + HEK293/hCD20/hCD38; bsAb7945 + TAAxCD3 [1]: 0.00502 nM
EC50 IL2 release; T cells + MOLP8; bsAb7945 + IgG4^P [1]: 0.00971 nM
EC50 IL2 release; T cells + NALM-6/hPD-L1; bsAb7945 + Cemiplimab [2]: 0.143 nM
EC50 IL2 release; T cells + NALM-6/hPD-L1; bsAb7945 + IgG4^P [2]: 0.169 nM
EC50 IL2 release; T cells + NALM-6; bsAb7945 + Cemiplimab [2]: 0.0981 nM
EC50 T-cell proliferation; T cells + HEK293/hCD20/hCD38; bsAb7945 + IgG4^P [3]: 45.6 nM
EC50 T-cell proliferation; T cells + HEK293/hCD20/hCD38; bsAb7945 + TAAxCD3 [3]: 0.000894 nM
EC50 IFNγ release; T cells + HEK293/hCD20/hCD38; bsAb7945 + TAAxCD3 [4]: 0.123 nM
EC50 IFNγ release; T cells + MOLP8; bsAb7945 + TAAxCD3 [4]: 0.00424 nM

B2: bsAb6031 (bispecific antibody, human IgG4 S228P, kappa)
heavy 1: EVQLVESGGGLVQPGRSLRLSCAASGFTFDDYAMHWVRQAPGKGLEWVSGISWKSDNIGYADSVKGRFTISRDNAKNSLYLQMNSLRAEDTALYYCAKALGGWKFDYYYGMDVWGQGTTVTVSSASTKGPSVFPLAPCSRSTSESTAALGCLVKDYFPEPVTVSWNSGALTSGVHTFPAVLQSSGLYSLSSVVTVPSSSLGTKTYTCNVDHKPSNTKVDKRVESKYGPPCPPCPAPPVAGPSVFLFPPKPKDTLMISRTPEVTCVVVDVSQEDPEVQFNWYVDGVEVHNAKTKPREEQFNSTYRVVSVLTVLHQDWLNGKEYKCKVSNKGLPSSIEKTISKAKGQPREPQVYTLPPSQEEMTKNQVSLTCLVKGFYPSDIAVEWESNGQPENNYKTTPPVLDSDGSFFLYSRLTVDKSRWQEGNVFSCSVMHEALHNHYTQKSLSLSLGK
heavy 2: EVQLVESGGGLVQPGGSLRLSCAASGFTFSRNNMHWVRQAPGKGLEYVSGISSNGGRTYYADSVKGRFTISRDNSKNTLYLQMGGLRAADMAVYFCTRDDELLSFDYWGQGTLVTVSSASTKGPSVFPLAPCSRSTSESTAALGCLVKDYFPEPVTVSWNSGALTSGVHTFPAVLQSSGLYSLSSVVTVPSSSLGTKTYTCNVDHKPSNTKVDKRVESKYGPPCPPCPAPPVAGPSVFLFPPKPKDTLMISRTPEVTCVVVDVSQEDPEVQFNWYVDGVEVHNAKTKPREEQFNSTYRVVSVLTVLHQDWLNGKEYKCKVSNKGLPSSIEKTISKAKGQPREPQVYTLPPSQEEMTKNQVSLTCLVKGFYPSDIAVEWESNGQPENNYKTTPPVLDSDGSFFLYSRLTVDKSRWQEGNVFSCSVMHEALHNRFTQKSLSLSPGK
light: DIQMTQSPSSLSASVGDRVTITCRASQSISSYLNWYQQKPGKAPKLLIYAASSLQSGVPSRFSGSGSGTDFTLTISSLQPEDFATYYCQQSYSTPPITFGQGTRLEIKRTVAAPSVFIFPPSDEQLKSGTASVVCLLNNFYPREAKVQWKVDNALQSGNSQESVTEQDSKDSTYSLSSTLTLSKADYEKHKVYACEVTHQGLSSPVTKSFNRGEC
EC50 IL2 release; T cells + HEK293/hCD20/hCD38; bsAb6031 + TAAxCD3 [1]: 0.199 nM
EC50 IL2 release; T cells + MOLP8; bsAb6031 + IgG4^P [1]: 0.653 nM
EC50 IL2 release; T cells + MOLP8; bsAb6031 + TAAxCD3 [1]: 1.02 nM
EC50 IL2 release; T cells + NALM-6/hPD-L1; bsAb6031 + Cemiplimab [2]: 4.39 nM
EC50 IL2 release; T cells + NALM-6/hPD-L1; bsAb6031 + IgG4^P [2]: 2.64 nM
EC50 IL2 release; T cells + NALM-6; bsAb6031 + Cemiplimab [2]: 2.44 nM
EC50 IL2 release; T cells + NALM-6; bsAb6031 + IgG4^P [2]: 1.68 nM
EC50 T-cell proliferation; T cells + HEK293/hCD20/hCD38; bsAb6031 + TAAxCD3 [3]: 0.143 nM
EC50 T-cell proliferation; T cells + MOLP8; bsAb6031 + IgG4^P [3]: 0.467 nM
EC50 IFNγ release; T cells + HEK293/hCD20/hCD38; bsAb6031 + TAAxCD3 [4]: 0.294 nM
EC50 IFNγ release; T cells + MOLP8; bsAb6031 + TAAxCD3 [4]: 0.748 nM
